Target: T1, IE2 (IE86) MBP fusion (Human cytomegalovirus, UniProt P19893 P19893:1-580)
T1 sequence: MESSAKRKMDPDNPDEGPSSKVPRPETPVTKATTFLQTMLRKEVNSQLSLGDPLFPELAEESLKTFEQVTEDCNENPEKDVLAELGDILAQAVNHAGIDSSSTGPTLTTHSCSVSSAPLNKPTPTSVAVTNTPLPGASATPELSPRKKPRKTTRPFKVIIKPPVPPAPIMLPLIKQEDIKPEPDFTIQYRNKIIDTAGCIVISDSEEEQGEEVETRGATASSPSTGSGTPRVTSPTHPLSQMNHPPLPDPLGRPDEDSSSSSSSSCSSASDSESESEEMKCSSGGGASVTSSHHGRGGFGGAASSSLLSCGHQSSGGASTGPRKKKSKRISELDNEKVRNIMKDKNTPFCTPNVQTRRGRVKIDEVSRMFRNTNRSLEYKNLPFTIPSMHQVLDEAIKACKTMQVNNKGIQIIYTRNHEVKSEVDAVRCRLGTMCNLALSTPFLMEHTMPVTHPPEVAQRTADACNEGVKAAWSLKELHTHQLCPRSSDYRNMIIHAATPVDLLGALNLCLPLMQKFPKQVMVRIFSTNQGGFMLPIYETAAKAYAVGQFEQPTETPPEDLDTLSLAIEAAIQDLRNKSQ
Assay: EMSA; IE2-CRS EMSA in presence of various amounts of Hoechst 33258 (BB33258); exact probe sequence not stated, CRS core given
Settings: tags: MBP fusion, expressed in E. coli BL21, amylose column

B1: hCMV CRS (IE2 binding site) (dsDNA)
DNA 1: TCGTTTAGTGAACCG
DNA 2: CGGTTCACTAAACGA
- binding result: binds
